Data on 141 substances can be found in the supplement of paper PMC12042874.

± gives the uncertainty stated by the source.

This data set can be described thus: amyloid nucleation score (Sup35N fusion, yeast selection) (log enrichment); library NNK1; higher = more nucleation; inactive = no reads after selection. The gist of the method: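 Growth for 7 days at 30°C on medium lacking adenine and uracil followed a 24-hour induction with 100 μM copper sulfate of psi-negative yeast expressing peptides of 20 random codons fused to Sup35N. Input and output plasmid inserts were sequenced with Illumina, and sequences with under 100 input reads were excluded. Nucleation score is the DiMSum log enrichment of output over input reads, centred on the mode score of non-aggregating sequences.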
QLSYLTFFCFVP yielded an amyloid nucleation score of 7.183 ± 0.052.

For TEALYWRLYMGQNKILSCRG, the amyloid nucleation score stood at 0.366 ± 0.61. For the substance RRLNCLILFKVVLLATIFCI, the amyloid nucleation score is -1.42 ± 0.58. MDRFRHNLILICLFLPLILV gave an amyloid nucleation score of -0.364 ± 0.75. In turn, TTVRGASANHVLTCYCPHYL displayed an amyloid nucleation score of 0.601 ± 0.82. For RVTSNEKRNYRVSRICPHLT, the amyloid nucleation score was -0.271 ± 1. For WCSLGCNYTVLFTLLGMVNT the value was 0.116 ± 0.37; for VSRVDCDNFGLRSRVSAL, 0.503 ± 0.37. CFVGYQW: the amyloid nucleation score is 0.622 ± 0.63. For ASMLFRSHQCCLIHSGADIN the value was 0.979 ± 0.29; for NNGPIPNILKEL, 0.523 ± 0.41; for TGFVWWLFGCGWTLVDRMWF, -0.79 ± 0.69.

In the case of FRYSSDWWSYS, the amyloid nucleation score was -0.834 ± 1.4. With RQSLRRSYHHRWKRDVMR, the amyloid nucleation score entry is “inactive”. With MFRALVCITVPILHKATNM, the amyloid nucleation score is -0.689 ± 0.81.

Consider CLKLDNMTRLVTNGTLGSAS, for which the amyloid nucleation score entry is “inactive”. Substance SSAGMTRTKNGPPC had an amyloid nucleation score of 2.89 ± 0.082.

As for LRCLYIG, the amyloid nucleation score is -0.818 ± 0.86. For SAKNTGYMWMLIWLG the value was 0.204 ± 0.79; for PKNGGQTMAYK, -0.665 ± 0.6; for YPGNSGSIY, -0.266 ± 0.91. For MSDSG, the amyloid nucleation score was -0.576 ± 0.81. The same measure for VRKCRVNYGENGFKYRTRTM: 0.739 ± 0.4; for EQQLQRM: “inactive”; for IVFFQEDGSWAEWFVGEVLT: 0.557 ± 0.42. For the substance EVISPFQLSSDVGGMSRLGV, the amyloid nucleation score was 0.73 ± 0.72. DHLYLMV yielded an amyloid nucleation score of 1.04 ± 0.72.

The substance TFYLEYLVLFGDCDADSFSW displayed an amyloid nucleation score of -0.361 ± 0.63. Take KRWYTCYVYVFRICMRVLCR: the amyloid nucleation score was found to be 0.731 ± 0.38. The substance WWVGCRACLPWDASSGKLLG registered an amyloid nucleation score of 0.139 ± 0.34. For the substance GSKTRAKLSLGCPKFLDAKG, the amyloid nucleation score was found to be 0.457 ± 0.73. For FLQSIEGRSETGRMSRAISV the value was 1.08 ± 0.93; for FLYDYYG, “inactive”; for TKVKCSLLSFWEKKFLLLRL, 1.82 ± 0.34.

ITYMYGYCMDYF showed an amyloid nucleation score of 0.439 ± 0.38.

VHNPSVNDLYFLVICCVYLF: the amyloid nucleation score turned out to be 0.484 ± 0.26.

On to RYHSMYTNSNTRGFGSSLQL, for which the amyloid nucleation score entry was “inactive”. Consider FGWLFVCEVSAAGPPTLIWT, for which the amyloid nucleation score turned out to be 3.11 ± 0.15.

Consider VKRRVSDTHVSCVKGHGSVC, for which the amyloid nucleation score entry was “inactive”. Substance LYCFIMDFLLGFKHCMCKGV displayed an amyloid nucleation score of 1.55 ± 0.44. NRRVPLIHCYLMCGYTGTCW displayed an amyloid nucleation score of 0.249 ± 0.4. NRWSGLSHRS displayed an amyloid nucleation score of -1.63 ± 2.1.

LQVKNVYGACFVCAMMVAWE displayed an amyloid nucleation score of 5.18 ± 0.09.

Turning to CMILFTNRQRVMRLVLCLSD, the amyloid nucleation score stood at 0.044 ± 0.49. The substance SSDRAYVFCTRNMEVREGSK registered an amyloid nucleation score of -0.835 ± 0.72. Take SGYVNFHL: the amyloid nucleation score result is “inactive”. For MWSLDGTKICNLRKVFGRSC the value was 0.809 ± 0.37; for RVDQVKSGFDMLYYPHWHQL, 0.532 ± 0.37.

In turn, TCWHVSILN displayed an amyloid nucleation score of 0.136 ± 0.24.

The substance FMYKMGSYGMDM returned an amyloid nucleation score of -0.57 ± 0.5. QMRSVYVQDTINMALIIHEL displayed an amyloid nucleation score of 0.617 ± 0.27. RFFCDCFFGSRGE gave an amyloid nucleation score of 1.88 ± 0.36. In turn, CTIILL had an amyloid nucleation score of 2.78 ± 0.14. In turn, VTRCVAVAFSLGYLVIKCAL had an amyloid nucleation score of -0.243 ± 0.76. As for VLEDDSDWGSRFVRRGYIKT, the amyloid nucleation score stood at 1.15 ± 0.61. In turn, LDMVANYLYSGSALILYCHL had an amyloid nucleation score of -1.17 ± 2.1. For TRCPV the value was 0.253 ± 0.66. As to GFPLQSKDTARNIGTQFLEW, the amyloid nucleation score was -0.003 ± 0.4. On to LSTYAGCRNAWPELQ, for which the amyloid nucleation score is -0.52 ± 0.4.

NGVSTVEYVMFKFSIAFAMF had an amyloid nucleation score of 6.583 ± 0.046. Turning to GISNSMVRHYLCTTFIYKDA, the amyloid nucleation score stood at 3.51 ± 0.066. For GFSANGLPCGAEAGEVFYTV, the amyloid nucleation score was -0.725 ± 0.81. LRKDGSGK showed an amyloid nucleation score of 1.06 ± 0.21. With FSGVMLPVLIISRF, the amyloid nucleation score result is “inactive”.

Turning to WNSRTSESC, the amyloid nucleation score was found to be 2.97 ± 0.15. Turning to DFCFPSNVRGLDCGGSKGYR, the amyloid nucleation score result was “inactive”.

On to GHTLRDVWASVEVRSNVDLD, for which the amyloid nucleation score came out at 0.54 ± 0.82. Substance LSVVSWICRFDALQGHSCVK yielded an amyloid nucleation score of -0.561 ± 0.41. With NRSVRGVFLEGNVRFCWLRE, the amyloid nucleation score was 1.21 ± 0.85. For FLATYLMEVYMMDSWNF the value was -1.65 ± 1.4; for SCLCYEDRSLHGYWNMSYAQ, 0.938 ± 0.49; for VVSRRVYDYTMDGLWGQ, 0.44 ± 0.36.

In the case of EDSMNNL, the amyloid nucleation score is -0.127 ± 0.84.

On to REIIGRLLSVRTSLAEYNSG, for which the amyloid nucleation score was -0.514 ± 0.91. NADCLIDDFASFDHMVPG displayed an amyloid nucleation score of 0.004 ± 0.51. Substance KPDRQVANFRDWFG gave an amyloid nucleation score of -0.244 ± 1.2. The same measure for RKNFLGIGQKLGSSSDWGG: -0.899 ± 1; for MRLSHAVTYRN: -0.987 ± 1.7; for DGLLSIEYMNVYSSS: 0.326 ± 0.77.

With GMSGGWPIYKLGSS, the amyloid nucleation score stood at 1.05 ± 0.25.

NNFGFET gave an amyloid nucleation score of 0.671 ± 0.31. INRHVAMWEDQVLSRLAMWF came in with an amyloid nucleation score of 2.53 ± 0.13. The same measure for TVTGFMF: -0.645 ± 1.7. RLRITVTISATAGMMRRLHR gave an amyloid nucleation score of 2.39 ± 0.14. For FVTDMAYNMMESGLHT, the amyloid nucleation score worked out at 6.44 ± 0.044. In turn, DLYKSVPKHNQSNMSDSTES returned an amyloid nucleation score of -0.631 ± 0.6. LGGSDYVYANSFTTIGSSGV had an amyloid nucleation score of -0.202 ± 0.21. For SCPVLHAVPNYCAKALLSLR the value was -0.794 ± 0.64. For GFLCQSRVLAML, the amyloid nucleation score entry is “inactive”. The same measure for ECMRTRFMGNYNGPGISILY: “inactive”; for TTRSSGIFSDEGKQACSDRG: 0.091 ± 0.74; for DSYDLY: “inactive”. On to NWEKVNLLTLRNTFRCSSRA, for which the amyloid nucleation score came out at 0.751 ± 0.27.

RDCPGL: the amyloid nucleation score is -0.95 ± 2.7. LVRRRSKSRVRVPFLRLSMR returned an amyloid nucleation score of -0.415 ± 0.72. The substance RSHGNGSGSRTVAF returned an amyloid nucleation score of -0.1 ± 0.49. Take TNFANHRLGDPIMYSFHKGV: the amyloid nucleation score was -0.74 ± 0.37. For GHRVAGCFSMSGVG, the amyloid nucleation score was found to be 1.25 ± 0.44. In turn, ILSIYVSDAYKSMSETN came in with an amyloid nucleation score of 1.14 ± 0.42. Consider LWYTFMSLHLGTVLEVRK, for which the amyloid nucleation score result is “inactive”. For RVMVFGRHNEDVSKFSISGK the value was 4 ± 0.1. The substance GCQLLYAKHIQSIMSQRPKN had an amyloid nucleation score of 0.374 ± 0.65. For the substance YYYHVVWAQ, the amyloid nucleation score result is “inactive”. VLCNFWMD had an amyloid nucleation score of 2.9 ± 0.17. STEVGYSFCHGGMSRTVCMC yielded an amyloid nucleation score of 1.45 ± 0.68. For VHRRRIRQSAWVRGAVSTFR the value was -0.011 ± 0.4; for LRVAFIKLKHKKFNDMYRSM, 0.156 ± 0.26. On to SIFLSNILNDTWFLSALSCM, for which the amyloid nucleation score is -1.41 ± 0.53. The substance ISCWRNYLDLSSLYLFALFI returned an amyloid nucleation score of 2.53 ± 0.077. Take CYAPSFWTYWCLCSCMVDPN: the amyloid nucleation score amounted to 5.8 ± 0.081. PSHLRYAAH: the amyloid nucleation score is -0.038 ± 0.54. As for IQYELMRMACSRNFIIAEFF, the amyloid nucleation score worked out at 0.2 ± 0.72. With WLNWSSYRRTISKLVRGFFS, the amyloid nucleation score was -0.295 ± 1.9.

In turn, ITVYLMALVNNVCG returned an amyloid nucleation score of 3.38 ± 0.13. In turn, QFKKVGPPLVKNLAQVRMRM came in with an amyloid nucleation score of -0.033 ± 0.47.

Regarding AFCRCNNRKVEQLMNLCGVF, the amyloid nucleation score is -0.771 ± 0.49. The same measure for ERPSRN: 0.22 ± 0.93; for HFGKRHSYRYLDDTCAQNLY: -0.811 ± 0.63; for RFYMWYLVLEVLEIGKLADP: -1.04 ± 2.7. Consider HSLRQKVPM, for which the amyloid nucleation score was 0.227 ± 0.3. In turn, HSPLTRNVRSCVK showed an amyloid nucleation score of 0.718 ± 0.36. VLGKCVNR registered an amyloid nucleation score of -0.366 ± 0.21.

IYASLNVEICFADLPWSTWV had an amyloid nucleation score of 0.358 ± 0.81. PRTNSNMIKCYIFDNAWNQL came in with an amyloid nucleation score of 6.234 ± 0.055. For the substance FNCRVNFFDSVGY, the amyloid nucleation score stood at 3.28 ± 0.16. Turning to FVGRCLNMKTCRRCLLSWDN, the amyloid nucleation score stood at 0.128 ± 1.6. RPWAWPRCRSCAST showed an amyloid nucleation score of 0.689 ± 0.37. The substance FWATRVTWLDEMLIYYCLVN came in with an amyloid nucleation score of 0.155 ± 0.36. FNAIWVVLRVRNREYKTSVL yielded an amyloid nucleation score of 1.03 ± 0.7.

In the case of RTCHSQICFSGRMYRLFVMI, the amyloid nucleation score stood at 0.41 ± 0.48. Substance SSYAHAVRTQDFKLASGHYV yielded an amyloid nucleation score of -0.7 ± 0.88. Regarding LFATYLAFKFY, the amyloid nucleation score was -0.356 ± 1. On to FAWGGFC, for which the amyloid nucleation score was -0.155 ± 0.86. Substance DGNLKSR displayed an amyloid nucleation score of 0.644 ± 0.78. MFFVSI returned an amyloid nucleation score of 0.41 ± 0.22.

Substance QRIGHLVLDSVGRTSCVMGA yielded an amyloid nucleation score of 0.386 ± 0.41. For FFLRSPFL, the amyloid nucleation score is 0.016 ± 0.41. Turning to YFKFRGDDCENYWSVSGNEA, the amyloid nucleation score came to 0.111 ± 1.2. As for AFVEGRMNHPYSGTMLSRRG, the amyloid nucleation score stood at 0.418 ± 0.53.

DVVPSSGFVFMIRTDTLSHN: the amyloid nucleation score is -0.265 ± 1.2.

Substance LAWVGVLW showed an amyloid nucleation score of -0.219 ± 1.1.
